Each block holds one molecule with its values, some of them ahead of it.
Legend:
3×MBT domain of L3MBTL1 = test: Triple SILAC pull-down, 3xMBT/3xMBTD355N ratio (cytoplasmic, nuclear and chromatin fractions of 293T cells); type: binding, human; settings: SILAC ratio 3xMBT vs 3xMBTD355N pull-down, 293T cells, all values in log base 2; for 3xMBT/D355N UNC Heavy: experiment with UNC0638 in heavy SILAC media; for 3xMBT/D355N UNC Light: experiment with UNC0638 in light SILAC media;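 for all read-outs here: proteins quantified with MaxQuant, requiring at least two unique peptides and quantification in both label directions, normalized to the mean of proteins from a digested loading control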
G9a and GLP = molecular target: T1, G9a and GLP (Homo sapiens, UniProt Q96KQ7+Q9H9B1); test: Triple SILAC pull-down after UNC0638 treatment of 293T cells, DMSO/UNC0638 ratio of protein captured by 3×MBT; type: cell-based; design: cells were treated for 24 hours with UNC0638 at 2.5 μM or DMSO vehicle control; endogenous in cells; host or cells: HEK 293T; settings: all values in log base 2; for Relative to UNC0638 UNC Heavy / Relative to UNC0638 UNC Light: SILAC ratio DMSO relative to UNC0638, pull-down with 3xMBT; for Relative to UNC0638 UNC Heavy: UNC0638 in heavy SILAC media; for Relative to UNC0638 UNC Light: UNC0638 in light SILAC media; for Relative to UNC0638 Average: average of UNC Light and UNC Heavy experiments;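 for all read-outs here: mass spectrometry (Q-Exactive) SILAC quantitation, DMSO/UNC0638 ratio computed after subtracting 3×MBTD355N mutant pull-down background, only proteins with at least twofold 3×MBT over mutant signal considered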
T1 sequence (Q96KQ7 2-1210 limits assumed): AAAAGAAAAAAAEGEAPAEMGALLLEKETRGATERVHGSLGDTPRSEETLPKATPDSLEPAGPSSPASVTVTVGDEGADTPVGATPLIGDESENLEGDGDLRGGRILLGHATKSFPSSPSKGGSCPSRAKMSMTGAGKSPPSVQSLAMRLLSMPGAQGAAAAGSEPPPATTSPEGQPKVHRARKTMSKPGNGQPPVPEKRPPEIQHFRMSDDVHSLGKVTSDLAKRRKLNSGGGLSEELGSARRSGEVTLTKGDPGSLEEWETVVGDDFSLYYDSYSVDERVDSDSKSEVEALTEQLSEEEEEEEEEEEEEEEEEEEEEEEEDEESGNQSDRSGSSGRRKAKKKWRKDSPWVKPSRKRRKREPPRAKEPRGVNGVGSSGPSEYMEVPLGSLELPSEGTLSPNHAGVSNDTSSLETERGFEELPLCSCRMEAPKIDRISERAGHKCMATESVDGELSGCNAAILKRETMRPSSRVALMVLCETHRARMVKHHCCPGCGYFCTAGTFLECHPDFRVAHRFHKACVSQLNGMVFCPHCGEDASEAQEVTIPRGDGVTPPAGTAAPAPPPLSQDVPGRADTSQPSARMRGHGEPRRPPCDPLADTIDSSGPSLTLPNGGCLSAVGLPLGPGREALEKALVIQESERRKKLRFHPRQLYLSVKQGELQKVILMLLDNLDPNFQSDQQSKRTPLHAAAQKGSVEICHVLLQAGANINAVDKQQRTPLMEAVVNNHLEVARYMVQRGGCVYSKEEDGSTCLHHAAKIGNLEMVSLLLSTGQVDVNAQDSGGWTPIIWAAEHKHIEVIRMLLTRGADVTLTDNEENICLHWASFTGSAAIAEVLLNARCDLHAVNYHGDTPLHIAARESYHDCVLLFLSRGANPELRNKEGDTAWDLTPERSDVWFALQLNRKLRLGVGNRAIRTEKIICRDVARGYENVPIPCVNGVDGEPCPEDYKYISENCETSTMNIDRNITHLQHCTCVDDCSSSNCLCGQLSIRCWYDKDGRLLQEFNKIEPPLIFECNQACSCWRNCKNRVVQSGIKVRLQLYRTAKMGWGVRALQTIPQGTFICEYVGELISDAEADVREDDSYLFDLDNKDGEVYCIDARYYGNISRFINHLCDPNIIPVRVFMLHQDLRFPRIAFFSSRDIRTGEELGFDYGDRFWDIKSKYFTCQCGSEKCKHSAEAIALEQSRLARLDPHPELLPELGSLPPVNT
T1 sequence (Q9H9B1 2-1298 limits assumed): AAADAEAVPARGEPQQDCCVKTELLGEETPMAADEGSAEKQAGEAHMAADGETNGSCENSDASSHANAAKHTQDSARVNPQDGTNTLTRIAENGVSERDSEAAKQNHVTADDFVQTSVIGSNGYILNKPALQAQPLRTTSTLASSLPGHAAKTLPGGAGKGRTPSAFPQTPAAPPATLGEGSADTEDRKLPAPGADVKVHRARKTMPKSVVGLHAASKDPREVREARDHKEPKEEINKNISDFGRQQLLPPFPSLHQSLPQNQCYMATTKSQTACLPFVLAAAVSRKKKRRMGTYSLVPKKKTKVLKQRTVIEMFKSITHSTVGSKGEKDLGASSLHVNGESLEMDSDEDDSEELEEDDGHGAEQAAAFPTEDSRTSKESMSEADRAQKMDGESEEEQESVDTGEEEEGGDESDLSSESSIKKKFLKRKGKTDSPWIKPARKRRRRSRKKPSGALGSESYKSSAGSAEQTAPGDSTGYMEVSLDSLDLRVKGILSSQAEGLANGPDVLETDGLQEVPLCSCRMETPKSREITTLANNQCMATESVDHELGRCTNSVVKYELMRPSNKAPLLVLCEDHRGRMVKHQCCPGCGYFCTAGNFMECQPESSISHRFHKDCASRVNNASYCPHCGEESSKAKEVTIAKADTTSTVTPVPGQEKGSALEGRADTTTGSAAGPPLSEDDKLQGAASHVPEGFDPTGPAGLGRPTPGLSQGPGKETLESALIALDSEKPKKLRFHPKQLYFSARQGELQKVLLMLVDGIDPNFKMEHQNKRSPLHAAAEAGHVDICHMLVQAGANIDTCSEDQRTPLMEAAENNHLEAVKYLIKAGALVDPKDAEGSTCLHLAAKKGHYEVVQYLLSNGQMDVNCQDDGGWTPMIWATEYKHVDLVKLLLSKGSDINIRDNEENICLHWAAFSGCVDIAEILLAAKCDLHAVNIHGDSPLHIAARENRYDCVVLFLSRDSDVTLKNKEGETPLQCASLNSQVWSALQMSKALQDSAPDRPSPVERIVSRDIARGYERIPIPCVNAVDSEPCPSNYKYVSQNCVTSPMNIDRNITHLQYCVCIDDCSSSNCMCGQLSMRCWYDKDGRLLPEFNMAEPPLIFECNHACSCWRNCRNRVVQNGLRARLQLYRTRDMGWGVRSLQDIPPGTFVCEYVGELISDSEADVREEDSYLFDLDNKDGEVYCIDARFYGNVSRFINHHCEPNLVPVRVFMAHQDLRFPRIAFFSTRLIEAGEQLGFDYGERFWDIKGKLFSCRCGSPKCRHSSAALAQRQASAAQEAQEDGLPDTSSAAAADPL

B1: CGGBP1 (protein, UniProt Q9UFW8 1-167, looked up)
CGG triplet repeat-binding …: MERFVVTAPPARNRSKTALYVTPLDRVTEFGGELHEDGGKLFCTSCNVVLNHVRKSAISDHLKSKTHTKRKAEFEEQNVRKKQRPLTASLQCNSTAQTEKVSVIQDFVKMCLEANIPLEKADHPAVRAFLSRHVKNGGSIPKSDQLRRAYLPDGYENENQLLNSQDC
3xMBT/D355N UNC Heavy (3×MBT domain of L3MBTL1): 2.44 log base 2
3xMBT/D355N UNC Light (3×MBT domain of L3MBTL1): 2.49 log base 2
Relative to UNC0638 UNC Heavy (G9a and GLP): 0.05 log base 2
Relative to UNC0638 UNC Light (G9a and GLP): 0.12 log base 2
Relative to UNC0638 Average (G9a and GLP): 0.09 log base 2

B4: NPM3 (protein, UniProt O75607 2-178, looked up)
Nucleoplasmin-3: AAGTAAALAFLSQESRTRAGGVGGLRVPAPVTMDSFFFGCELSGHTRSFTFKVEEEDDAEHVLALTMLCLTEGAKDECNVVEVVARNHDHQEIAVPVANLKLSCQPMLSLDDFQLQPPVTFRLKSGSGPVRITGRHQIVTMSNDVSEEESEEEEEDSDEEEVELCPILPAKKQGGRP
3xMBT/D355N UNC Heavy (3×MBT domain of L3MBTL1): 2.70 log base 2
3xMBT/D355N UNC Light (3×MBT domain of L3MBTL1): 2.15 log base 2
Relative to UNC0638 UNC Heavy (G9a and GLP): 0.13 log base 2
Relative to UNC0638 UNC Light (G9a and GLP): 0.03 log base 2
Relative to UNC0638 Average (G9a and GLP): 0.08 log base 2

B5: RPRD1A (protein, UniProt Q96P16 2-312, looked up)
Regulation of nuclear …: SAFSEAALEKKLSELSNSQQSVQTLSLWLIHHRKHSRPIVTVWERELRKAKPNRKLTFLYLANDVIQNSKRKGPEFTKDFAPVIVEAFKHVSSETDESCKKHLGRVLSIWEERSVYENDVLEQLKQALYGDKKPRKRTYEQIKVDENENCSSLGSPSEPPQTLDLVRALQDLENAASGDAAVHQRIASLPVEVQEVSLLDKITDKESGERLSKMVEDACMLLADYNGRLAAEIDDRKQLTRMLADFLRCQKEALAEKEHKLEEYKRKLARVSLVRKELRSRIQSLPDLSRLPNVTGSHMHLPFAGDIYSED
3xMBT/D355N UNC Heavy (3×MBT domain of L3MBTL1): 2.16 log base 2
3xMBT/D355N UNC Light (3×MBT domain of L3MBTL1): 1.62 log base 2
Relative to UNC0638 UNC Heavy (G9a and GLP): 0.16 log base 2
Relative to UNC0638 UNC Light (G9a and GLP): −0.02 log base 2
Relative to UNC0638 Average (G9a and GLP): 0.07 log base 2

B6: MRE11A (protein, UniProt P49959 2-708, looked up)
Double-strand break repair …: STADALDDENTFKILVATDIHLGFMEKDAVRGNDTFVTLDEILRLAQENEVDFILLGGDLFHENKPSRKTLHTCLELLRKYCMGDRPVQFEILSDQSVNFGFSKFPWVNYQDGNLNISIPVFSIHGNHDDPTGADALCALDILSCAGFVNHFGRSMSVEKIDISPVLLQKGSTKIALYGLGSIPDERLYRMFVNKKVTMLRPKEDENSWFNLFVIHQNRSKHGSTNFIPEQFLDDFIDLVIWGHEHECKIAPTKNEQQLFYISQPGSSVVTSLSPGEAVKKHVGLLRIKGRKMNMHKIPLHTVRQFFMEDIVLANHPDIFNPDNPKVTQAIQSFCLEKIEEMLENAERERLGNSHQPEKPLVRLRVDYSGGFEPFSVLRFSQKFVDRVANPKDIIHFFRHREQKEKTGEEINFGKLITKPSEGTTLRVEDLVKQYFQTAEKNVQLSLLTERGMGEAVQEFVDKEEKDAIEELVKYQLEKTQRFLKERHIDALEDKIDEEVRRFRETRQKNTNEEDDEVREAMTRARALRSQSEESASAFSADDLMSIDLAEQMANDSDDSISAATNKGRGRGRGRRGGRGQNSASRGGSQRGRADTGLETSTRSRNSKTAVSASRNMSIIDAFKSTRQQPSRNVTTKNYSEVIEVDESDVEEDIFPTTSKTDQRWSSTSSSKIMSQSQVSKGVDFESSEDDDDDPFMNTSSLRRNRR
3xMBT/D355N UNC Heavy (3×MBT domain of L3MBTL1): 1.35 log base 2
3xMBT/D355N UNC Light (3×MBT domain of L3MBTL1): 2.06 log base 2
Relative to UNC0638 UNC Heavy (G9a and GLP): 0.07 log base 2
Relative to UNC0638 UNC Light (G9a and GLP): 0.07 log base 2
Relative to UNC0638 Average (G9a and GLP): 0.07 log base 2

Second part, led by results:

Relative to UNC0638 UNC Heavy (G9a and GLP): −0.01 log base 2
Relative to UNC0638 UNC Light (G9a and GLP): 0.18 log base 2
Relative to UNC0638 Average (G9a and GLP): 0.09 log base 2
B2: THYN1 (protein, UniProt Q9P016 1-225, looked up)
Thymocyte nuclear protein 1: MSRPRKRLAGTSGSDKGLSGKRTKTENSGEALAKVEDSNPQKTSATKNCLKNLSSHWLMKSEPESRLEKGVDVKFSIEDLKAQPKQTTCWDGVRNYQARNFLRAMKLGEEAFFYHSNCKEPGIAGLMKIVKEAYPDHTQFEKNNPHYDPSSKEDNPKWSMVDVQFVRMMKRFIPLAELKSYHQAHKATGGPLKNMVLFTRQRLSIQPLTQEEFDFVLSLEEKEPS
3xMBT/D355N UNC Heavy (3×MBT domain of L3MBTL1): 2.42 log base 2
3xMBT/D355N UNC Light (3×MBT domain of L3MBTL1): 2.85 log base 2

Relative to UNC0638 UNC Heavy (G9a and GLP): 0.02 log base 2
Relative to UNC0638 UNC Light (G9a and GLP): 0.15 log base 2
Relative to UNC0638 Average (G9a and GLP): 0.08 log base 2
B3: SRRT (protein, UniProt Q9BXP5 2-876, looked up)
Serrate RNA effector molecule …: GDSDDEYDRRRRDKFRRERSDYDRSRERDERRRGDDWNDREWDRGRERRSRGEYRDYDRNRRERFSPPRHELSPPQKRMRRDWDEHSSDPYHSGYEMPYAGGGGGPTYGPPQPWGHPDVHIMQHHVLPIQARLGSIAEIDLGVPPPVMKTFKEFLLSLDDSVDETEAVKRYNDYKLDFRRQQMQDFFLAHKDEEWFRSKYHPDEVGKRRQEARGALQNRLRVFLSLMETGWFDNLLLDIDKADAIVKMLDAAVIKMEGGTENDLRILEQEEEEEQAGKPGEPSKKEEGRAGAGLGDGERKTNDKDEKKEDGKQAENDSSNDDKTKKSEGDGDKEEKKEDSEKEAKKSSKKRNRKHSGDDSFDEGSVSESESESESGQAEEEKEEAEEALKEKEKPKEEEWEKPKDAAGLECKPRPLHKTCSLFMRNIAPNISRAEIISLCKRYPGFMRVALSEPQPERRFFRRGWVTFDRSVNIKEICWNLQNIRLRECELSPGVNRDLTRRVRNINGITQHKQIVRNDIKLAAKLIHTLDDRTQLWASEPGTPPLPTSLPSQNPILKNITDYLIEEVSAEEEELLGSSGGAPPEEPPKEGNPAEINVERDEKLIKVLDKLLLYLRIVHSLDYYNTCEYPNEDEMPNRCGIIHVRGPMPPNRISHGEVLEWQKTFEEKLTPLLSVRESLSEEEAQKMGRKDPEQEVEKFVTSNTQELGKDKWLCPLSGKKFKGPEFVRKHIFNKHAEKIEEVKKEVAFFNNFLTDAKRPALPEIKPAQPPGPAQILPPGLTPGLPYPHQTPQGLMPYGQPRPPILGYGAGAVRPAVPTGGPPYPHAPYGAGRGNYDAFRGQGGYPGKPRNRMVRGDPRAIVEYRDLDAPDDVDFF
3xMBT/D355N UNC Heavy (3×MBT domain of L3MBTL1): 2.15 log base 2
3xMBT/D355N UNC Light (3×MBT domain of L3MBTL1): 2.41 log base 2

Reference: patent US20140274782A1, “AFFINITY REAGENTS AND METHODS FOR DETECTION, PURIFICATION, AND PROTEOMIC ANALYSIS OF METHYLATED PROTEINS” (The Board of Trustees of the Leland Stanford Junior …, priority 2013, published 2014)
